Patent publication US20140286957A1 (Teva, published 2014)
Substitutions are numbered along the chain they refer to. Read-outs that look alike come from different tables or passages of the source. Blank lines part the entries; values can stand above or below the binder they belong to.

Tests used:
[1] = target: T1, Human CD1d/β2M (human, UniProt P15813 20-301; P61769 21-119); assay: SPR, transfection supernatant
T1 construct: also called hCD1d; recombinant human CD1d

[2] = target: T1, Human CD1d/β2M; assay: SPR, transfection supernatant; remark: listed apart in the source

B1: 401.11.38 (antibody, name in Kabat numbering, V domains shown)
VH: QVQLVGSGGGLVKPGRSLRLSCAASGFTFDDYAMHWVRQAPGKGLEWVATIIWNSAIIGYADSVKGRFIVSRDNAKNSLYLQMNSLRAEDMALYYCAKSMCSSSGCPDGYFDSWGQGTLVTVSS
VL: DIQMTQSPSSVSASVGDRVTITCRASQHISSWLAWYQQKPGKAPNLLIYAASSLQSGVSSRFSGSGSGTDFTLTISSLQPEDFATYYCQQANRFPLTFGGGTKLEIKR
- binding result [1]: no binding

B2: 401.11.137 (antibody, name in Kabat numbering, V domains shown)
VH: B1 VH with S99D, S113R
VL: B1 VL
- Kd [2]: 0.938 nM

B6: 401.11.136 (antibody, name in Kabat numbering, V domains shown)
VH: B1 VH with S99D, S113K
VL: B1 VL
- Kd [2]: < 0.01 nM

B7: 401.11.139 (antibody, name in Kabat numbering, V domains shown)
VH: B1 VH with S99D, S113G
VL: B1 VL
- Kd [2]: 0.594 nM

B12: 401.11.49 (antibody, name in Kabat numbering, V domains shown)
VH: B1 VH with S99D, M100S
VL: B1 VL
- Kd [1]: 0.401 nM

B13: 401.11.133 (antibody, name in Kabat numbering, V domains shown)
VH: B1 VH with S99D, S113W
VL: B1 VL
- Kd [2]: 0.167 nM

B14: 401.11.45 (antibody, name in Kabat numbering, V domains shown)
VH: B1 VH with S99D, M100R
VL: B1 VL
- Kd [1]: 0.249 nM

B15: 401.11.44 (antibody, name in Kabat numbering, V domains shown)
VH: B1 VH with S99D, M100K
VL: B1 VL
- Kd [1]: 0.431 nM

B16: 401.11.138 (antibody, name in Kabat numbering, V domains shown)
VH: B1 VH with S99D, S113Y
VL: B1 VL
- Kd [2]: 0.171 nM

Next, values leading:

- Kd [1]: 0.303 nM
B3: 401.11.46 (antibody, name in Kabat numbering, V domains shown)
VH: B1 VH with S99D, M100F
VL: B1 VL

- Kd [2]: 0.0313 nM
B4: 401.11.126 (antibody, name in Kabat numbering, V domains shown)
VH: B1 VH with S99D, Y110S
VL: B1 VL

- Kd [2]: 0.421 nM
B5: 401.11.135 (antibody, name in Kabat numbering, V domains shown)
VH: B1 VH with S99D, S113V
VL: B1 VL

- Kd [2]: 0.532 nM
B8: 401.11.134 (antibody, name in Kabat numbering, V domains shown)
VH: B1 VH with S99D, S113L
VL: B1 VL

- Kd [2]: 0.2 nM
B9: 401.11.131 (antibody, name in Kabat numbering, V domains shown)
VH: B1 VH with S99D, S113D
VL: B1 VL

- Kd [2]: 1.38 nM
B10: 401.11.124 (antibody, name in Kabat numbering, V domains shown)
VH: B1 VH with S99D, Y110W
VL: B1 VL

- Kd [2]: 2.7 nM
B11: 401.11.127 (antibody, name in Kabat numbering, V domains shown)
VH: B1 VH with S99D, Y110Q
VL: B1 VL

- Kd [2]: 0.535 nM
B17: 401.11.125 (antibody, name in Kabat numbering, V domains shown)
VH: B1 VH with S99D, Y110F
VL: B1 VL

- Kd [2]: 0.569 nM
B18: 401.11.132 (antibody, name in Kabat numbering, V domains shown)
VH: B1 VH with S99D, S113T
VL: B1 VL
